The assay concerns the target L973F mutant human insulin receptor B isoform, FLAG tagged (human).

This note sets out measurements from PMC9927934.

B1: Shc (natural protein)
chain: MDLLPPKPKYNPLRNESLSSLEEGASGSTPPEELPSPSASSLGPILPPLPGDDSPTTLCSFFPRMSNLKLANPAGGRLGPKGEPGKAAEDGEGSAGAALRDSGLLPLLQDMNKLSGGGGRRTRVEGGQLGGEEWTRHGSFVNKPTRGWLHPNDKVMGPGVSYLVRYMGCVEVLQSMRALDFNTRTQVTREAISLVCEAVPGAKGATRRRKPCSRPLSSILGRSNLKFAGMPITLTVSTSSLNLMAADCKQIIANHHMQSISFASGGDPDTAEYVAYVAKDPVNQRACHILECPEGLAQDVISTIGQAFELRFKQYLRNPPKLVTPHDRMAGFDGSAWDEEEEEPPDHQYYNDFPGKEPPLGGVVDMRLREGAARPTLPSAQMSSHLGATLPIGQHAAGDHEVRKQMLPPPPCPGRELFDDPSYVNIQNLDKARQAGGGAGPPNPSLNGSAPRDLFDMKPFEDALRVPPPPQSMSMAEQLQGEPWFHGKLSRREAEALLQLNGDFLVRESTTTPGQYVLTGLQSGQPKHLLLVDPEGVVRTKDHRFESVSHLISYHMDNHLPIISAGSELCLQQPVDRKV
B1: the Shc phosphorylation in L973F-IR cells against WT-IR cells, immunoblot, 1 to 100 nM insulin for 15 minutes (printed together with Gab-1 and ERK phosphorylation) was in the range of 2 to 4 fold.
